We go through 1 substance from US20250333515A1.

This assay addresses biotinylated recombinant human CLL-1 extracellular domain protein, isoform with lysine at amino acid position 244 (human) (UniProt Q5QGZ9). The assay can be described thus: Exp 1 (= Octet, CLL-1-K244 of FIG. 12B); Exp 2: ND. (Biolayer interferometry detects binding as a change in optical thickness at a sensor tip.)

biotinylated recombinant human CLL-1 extracellular domain protein, isoform with lysine at amino acid position 244 (human), sequence (Q5QGZ9 65-265): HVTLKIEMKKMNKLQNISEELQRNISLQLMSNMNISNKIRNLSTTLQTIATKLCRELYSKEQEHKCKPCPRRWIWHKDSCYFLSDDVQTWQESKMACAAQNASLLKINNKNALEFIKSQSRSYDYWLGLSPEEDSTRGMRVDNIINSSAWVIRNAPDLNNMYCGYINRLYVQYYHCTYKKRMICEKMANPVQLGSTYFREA

Turning to + Control, the Kd (as a rule, the constant that tells how readily two partners part at equilibrium) was determined as 0.127 nM.
